From the nanobody polyreactivity screen of Harvey et al. (2022)

Assay: yeast display, Sf9 membrane polyspecificity reagent, FACS + sequencing; frameworks hold sequencing errors
How it was run: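 Nanobodies came from a synthetic yeast display library in Saccharomyces cerevisiae BJ5465, induced with galactose for 36–48 hours and stained for 1 hour at 4 °C with 10% biotinylated, detergent-solubilized Sf9 membrane reagent. Cells were enriched on streptavidin microbeads and then FACS-sorted, with low and high (top ~1%) gates set on anti-HA fluorescence for expression and streptavidin fluorescence for reagent binding. Each polyreactivity label reflects the gate a clone came from. Genes were amplified by colony PCR, sequenced by MiSeq 2 × 250 and filtered by CDR length.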

QVQLVESGGGLVQAGGTLRLSCAASGSIFRRKVMVWYRQAPGKERELVAAMSWSGDRTYYADSVKGRFTISRDNAKNTVYLQMNSLKPEDTAVYYCAAANASPRRYGQYDDWGQGTQVTVSS
polyreactivity (PSR sort gate): high polyreactivity

QVQLVESGGGLVQAGGSLRLSCAASGSIFKYYVMGWYRQAPGKEREFVAVISWSGGTTYYADSVKGRFTISRDNAKNTVYLQMNSLKPEDTAVYDCNKDYIYVGVPRYRSINHDYWGQGTQVTVSS
polyreactivity (PSR sort gate): low polyreactivity

QVQLVESGGGLVQAGGSLRLSCAASGSTFGDNAMGWYRQAPGKERELVAVITSDTSTYYADSVKGRFTISRDNAKNTVYLQMNSLKPEDTAVYYCAADWGGLWFWYEYWGQGTQVTVSS
polyreactivity (PSR sort gate): low polyreactivity

QVQLVESGGGLVQAGGSLRLSCAASGYIFRYYAMGWYRQAPGKERELVAAISWNGGRTYYADSVKGRFTISRDNAKNTVYLQMNSLKPEDTAVYYCAARYWGDYFTEMNYWGQGTQVTVSS
polyreactivity (PSR sort gate): high polyreactivity

QVQLVESGGGLDQARGSLRLSCAASGRIFRSYVMGWYRQAPWKERELVAAISWRGGSTYADSVKGRFTISRDNAKNTVYLQMNSLKPEDTAVYYCAARGPYTYRRYCYWGQGTQVTVSS
polyreactivity (PSR sort gate): high polyreactivity

QVQLVESGGGLVQAGGSLRLSCAASGFTFNYYAMGWYRQAPGKEREFVAAISRSAGSTYYADSVKGRFTISRDNAKNTVYLQMNSLKPEDTAVYYCAADPRSKGFYYGYDYWGQGTQVTVSS
polyreactivity (PSR sort gate): high polyreactivity

QVQLVESGGGLVQAGGSLRLSCAASGSIFRYNAMGWYRQAPGKERELVAAITWSGGSTYYADSVKGRFTISRDNAKNTVYLQMNSLKPEDTAVYYCAASPYPHYRRYTGGFYYWGQGTQVTVSS
polyreactivity (PSR sort gate): high polyreactivity

QVQLVESGGGLVQAGGSLRLSFAASGINFEHNSMGWYRQAPGKERELVAVISKYGGRTYYADSVKGRFTISRDNAKNTVYLQMNSLKPEDTAVYYCAKRSPFITWNGISYEEYDYWGQGTQVTVSS
polyreactivity (PSR sort gate): low polyreactivity

QVQLVESGGGLVQAGGSLRLSCAASGLISESYAMGWYRQAPGKETELVAAISSGGSTYYADSVKGRFTISRDNAKNTVYLQMNSLNPEDTAVYFCNATGYKYNYGHAYYYAVDYWGQGTQVTVSS
polyreactivity (PSR sort gate): low polyreactivity

QVQLVESGGGLVQAGGSLRLSCAASGSTFNTYAMGWYRQAPGKERELVAAITWRGGRTYYADSVKGRFTISRDNAKNTVYLQMNSLKPEDTAVYYCAARRTYYSRKPRFDYWGQGTQVTVSS
polyreactivity (PSR sort gate): high polyreactivity

QVQLVESGGGLVQAGGSLRLSCAASGRTFYVNARGWYREAPGKERELVATISRGTRTYYADSVKGRFTISRDNAKNTVYLQMNSLIPEDTAVYYCAADARPYESPYYYWGQGTQVTVSS
polyreactivity (PSR sort gate): high polyreactivity

QVQLVESGGGLDQAGGSLRLSCAASGLIFVRYAMGWYRQAPGKERELVATISARGASTYYADSVKGRFTISRDNAKNTVYLQMNSLIPEDTAVYYCANRGYYSRFYSYGYWGQGTEVTVSS
polyreactivity (PSR sort gate): high polyreactivity

QVQLVESGGGLVQAGGSLRLSCAASGSIFDTNAMRWYRQAPGKERELVAAISFSGVRTYYEDSVKGRFTISRYNAKNTVSLQMYSLKPEDTAVYYCAAESGKYLESRYRYYTRYYYWGQGTEVTVSS
polyreactivity (PSR sort gate): high polyreactivity

QVQLVESGGGLVQAGGSLRLSCAASGSIFIYNAMGWYRQAPGKERELVAAISSSGGSTYYADSVKGRFTISRDNAKNTVYLQMNSLNPEDTAVSYCAARTYYVRGLGGRPGMDYWGQGTQVTVSS
polyreactivity (PSR sort gate): low polyreactivity

QVQLVESGGGLVQAGGSLRLSCAACGSTFPGNAKGWYRQAPGKERELVAAISSSGGITYYADSVKGRFTISRDNAKNTVYLQMNSLIPEDTAVYYCSWGHGTQVTVSS
polyreactivity (PSR sort gate): low polyreactivity

QVQLVESGGGLVQAGGSLRLSCAASGSIFVPYAMGWYRQEPGKERELVAAISRRGGRTNYADSVKGRFTISRDNAKNTVYLQMNSLKPEDTAVYYCADGWRGVYYTRYDSWGQGTQVTVSS
polyreactivity (PSR sort gate): high polyreactivity

QVQLVESGGGLVQAGGSLRLSCAASGFTFALYAMGWYRQAPGKERELVASISWSGGSTYYADSVKGRFTISRDNAKNTVYLQMNSLKPEDTAVYYCAACGRYYGGAYTRYYYWGQGTQVTVSS
polyreactivity (PSR sort gate): high polyreactivity

QVQLVESGGGLVQAGGSLRLICAASGRIFSRNAMGWYRQAPGKERELVAGISARGGRTYYADSVKGRFTISRDNAKNTVYLQMNSLKPEDTAVYYCNARTGYQDGTYGNDYWGQGTQVTVSS
polyreactivity (PSR sort gate): high polyreactivity

QVQLVESGGGLVQAGRSLRLSCAASGRIFRQNAMGWYRPAPGKETELVAAIDWNGTSTYADSVKGRFTISRDNAKNTVYFQLNSLKPVDTAVYYCTARYGRTSPDGDYWGQGTQVTVSS
polyreactivity (PSR sort gate): low polyreactivity

QVQLVESGGGLVQAGGSLRLSCAASGSTFHLYAMGWNRQAPGKEREFVAAIRGRGGNTYADSVKGRFTISRDNAKNSGYLQMNSLKPEDTAVYYCAARTHYDSDYWGQGTQVTVSS
polyreactivity (PSR sort gate): low polyreactivity

QVHLVESGGGLVQAGGSLRLSCAASGFIFVRNAMGWYSQAPGKEREFVAAITRSGGSTYYADSVKVRFTISRDNAKNTVYLQMYSLKPEDTAVYYCAVLYHSRDSYTYRDEDYWGQGTQVTVSS
polyreactivity (PSR sort gate): low polyreactivity

QVQLVESGGGLVQAGGSLRLSCAASGRTFTWYAMGWYRQAPGKERELVAAISFSGGSTYYADSVKGRFTISRDNAKNTVYLQMNSLKPEDTAVYYCARPSGDAWEGPRMDYWGQGTQVTVSS
polyreactivity (PSR sort gate): low polyreactivity

QVQLVESGGGLVQAGGSLRLSCAASGSTFKVNAMGWYRQAAGKEREFVAAITKNGGRTYYADSVKGRFTISRDYAKNTVYLQMNSLKPEDTAVYYCAARLYLPIIVVDLYGYDYWGQGTQVTVSS
polyreactivity (PSR sort gate): low polyreactivity

QVQLVESGGGLVQAGGSLRLSCAASGSTFDYYDMGWYRQAPGKARELVAAISSGGDSTYYADSVKGRFTISRDNAKNTVYLQMNSLKPEDTAVYYCAAAVYYGQSVWYYYWGQGTQVTVSS
polyreactivity (PSR sort gate): high polyreactivity

QVQLVESGGGLVQAGGSLRLSCAASGRTFGINAMRWSRQATGKERELVAAITGRSGRTYYADSVKGRFTISRDNAKYTVYLQMNSLQPEDTAVYYCAARWPVYSRRYGYWGQGTQVTVSS
polyreactivity (PSR sort gate): high polyreactivity

QVQLVESGGGLVQAGGSLRLSCAASGFIFFGEYVMGWYRQAPGKEREFVAAITDSDGSTYYADSVKGRFTISRDNAKNTVYLQMTSLKPEDTAVYYCAAERVCSDMDYWGQGTQVTVSS
polyreactivity (PSR sort gate): low polyreactivity

QVQLVESGGGLVQAGGILRLSCAASGSNFGYYVMGWYRQAPGKERELVAGISTGGSTYYADSVKGRFTISRDNAKNTVYLQMNSLKPEDTAVYYCAADYTLSYWGFVYWGQGTQVTVSS
polyreactivity (PSR sort gate): low polyreactivity

QVQLVESGGGLVQAGGSLRISCAASGFTFYRYAMGWYRQAPGKESELVAAITRSGRTYYADSVKGRFTISRDNAKNTFYLQMNSLKPEDTAVYYCYADWGLGTQVTVSS
polyreactivity (PSR sort gate): high polyreactivity

QVQLVESGGGLVQAGGSLRLSCAASGSTFSANTMGWYRQAPGKQREFVAAISSSGVGTRYADSVKGRFTISRDYAKNTVYLQMNSLKPEDTAVYYCAADYRPTVITRNDYWGQGTQVTVSS
polyreactivity (PSR sort gate): low polyreactivity

QVQLVESGGGLVQAGGSLRLICAASGLIFKVYAMGWYRQAPGKERELVAAITYSGGSTDYADSVKGRFTISRDNAKNTVYLQMNSLKPEDTAVYYCNVEKVGHVNSYGYDYWGQGTQVTVSS
polyreactivity (PSR sort gate): low polyreactivity

QVQLVESGGGLVQAGGSLRLSCAASGSTFPTYAMGWYRQAPGKERELVAAITRGGSTYYADSVKGRFTISRDNAKNTVYLQMHSRKPEDTSVYYCAVYEFLGQIGKRDYWGQGTQVTVSS
polyreactivity (PSR sort gate): low polyreactivity

QVQLVETGGGLVQAGGSLRISCAASGIIYVDNVMGSYRQAPGKERELVAAIDYSGGSTYYADSVKGRFTISRDNAKNNVYFQMNSLKPEDTAVYYCHARTYYGYGMDYWGQGTQVTVSS
polyreactivity (PSR sort gate): low polyreactivity

QVHLVESGGGLVQAGGSLRLSCAASGFIFYPYAMGWYRQAPGKERELVAAITSSGGSTYYADSVKGRFTISRDNAKNTVYLQMNSLKPEDTAVYYCAAYTSYYGTIIAYRYYYWGQGTQVTVSS
polyreactivity (PSR sort gate): high polyreactivity

QVQLVESGGGLVQAGGSLRLSCAASGSTYYNAMGWYRQAPGKERELVAAIRFRSGSTYYADSVKGRFTISRDNAKNTVYLQMNSLKPEDTAVYYCAADNKRSWRYAYNYWGQGTQVTVSS
polyreactivity (PSR sort gate): high polyreactivity

QVQLVESGGGLVQAGGSLRLSCAASGRIFSRNAMGWYRQAPGKERELVAAITWRGGSTYYADSVKGRFTISRDNAKNTVYLQMNSLKPEDTAVYYCNRDYRQYGYAYSGRYYWGQGTQVTVSS
polyreactivity (PSR sort gate): high polyreactivity

QVQLVESGGGLVQAGGSLRLSCAASGFIFRQYAMGWYRQAPGKERELVAAISWSGGSTYYADSVKGRFTISRDNAKNTVYLQMNSLKPEDTAVYYCNVLTPPTDYDYWGQGTQVTVSS
polyreactivity (PSR sort gate): high polyreactivity

QVQLVESGGGLVQAGGSLRLSCAASGRIFSRYAMGWYRQAPGKERELVAAITWSVGSTYYADSVKGRFTISRDNAKNTVYLQMNSLKPEDTAVSYCAKLVRYYKPGYDYGGQGTQVTVSS
polyreactivity (PSR sort gate): low polyreactivity

QVHLVESGGGLVQAGGSLRLSCAASGSTLYTYGMGWYRQAPGKERELVASISWRAARTYYADSVKGRFTISRDNAKNTVYLQMNSLKPEDTAVYYCNADYYIAPYDSWGQGTQVTVSP
polyreactivity (PSR sort gate): low polyreactivity

QVQLVESGGGLVQAGGSLRLSCAASGRTFLIYAMGWYRQAPGKERELVAAITNGVDSTYYADSVKGRFTISRDNAKNTVYLQMNSLKPEDTAVYYCNADTVVEWYSPSREYDYWGQGTQVTVSS
polyreactivity (PSR sort gate): low polyreactivity

QVQLVESGRGLVQAGGSLRLSCAASGTYGYYAMGWYRQAPGKQRELVAAISGSGGSTYYADSVKGRFTISRDNAKNTVYLQMNSLKPEDTAVYYCAKRRRYGGRWVSGDYWGQGTQVTVSS
polyreactivity (PSR sort gate): high polyreactivity

QVQLVESGGGLVQAGGSLRLSCAASGSTFYYAMGWYRQAPGKEMELVASITFSTGSTYYADSVKGRFTISRDNAKNTVYLQMNSLKPEDTAVYYCATGVDTYSLTVEHDSWGQGTQVTVSS
polyreactivity (PSR sort gate): low polyreactivity

QDQLVESGGGLVQAGGSLSLSCAASGRTLWRNTMGWYRQAPGKERELVAAITTRGGSTYYADSVKGRFTISRDTAKNTVYLQLNSLKPEDTAVYYCAARTYTGEGSGRFYYWGQGTQVTVSS
polyreactivity (PSR sort gate): high polyreactivity

QVQLVESGGVLVQAGGSLRLSCAASGFIFSSNAMGWCREAPGKERELVAAITGGGGRTRYADSVKGRFTISRDNAKNTVYLQMNSLKPEDTAVYYCAAEVYSIWWYDYWGQGTQVTVSS
polyreactivity (PSR sort gate): high polyreactivity
